Results on ten substances are retold here after paper PMC12597760.

For assay [1], the target named is TGF-β2.
Target sequence in this assay (P61812 303-414): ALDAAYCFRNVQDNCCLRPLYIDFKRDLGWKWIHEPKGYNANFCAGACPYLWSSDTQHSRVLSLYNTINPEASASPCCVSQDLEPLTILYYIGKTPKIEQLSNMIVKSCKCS
Assay [2] addresses TGF-β1.
Target sequence in this assay (P01137 279-390): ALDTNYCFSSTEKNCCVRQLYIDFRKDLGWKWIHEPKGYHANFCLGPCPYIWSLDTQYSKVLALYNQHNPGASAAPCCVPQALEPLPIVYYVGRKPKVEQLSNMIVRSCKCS
The target in assay [3] is TGF-β3.
The target of assay [4] is TGF-β2. The source holds these as a separate data set.
Assay [5] addresses TGF-β1. The source holds these as a separate data set.
Target sequence in this assay (P01137 279-390): as above
The target in assay [6] is TGF-β1. The source holds these as a separate data set.
Assay [7] deals with Synagis-T22d35 (UniProt P37173). The assay is described as follows: SPR.
The target in assay [8] is Synagis. Description: SPR. On the technique in general: SPR reads the build-up and loss of mass on a sensor chip optically.
Chain of Synagis (heavy, as listed by the source, chain 1 of 2): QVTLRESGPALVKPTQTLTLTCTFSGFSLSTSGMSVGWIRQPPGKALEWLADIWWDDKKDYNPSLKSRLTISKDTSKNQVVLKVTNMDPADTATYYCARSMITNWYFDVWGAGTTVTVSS
Chain of Synagis (light, as listed by the source, chain 2 of 2): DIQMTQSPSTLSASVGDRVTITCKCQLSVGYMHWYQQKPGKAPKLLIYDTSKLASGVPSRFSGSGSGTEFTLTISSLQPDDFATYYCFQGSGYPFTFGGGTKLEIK

Read-outs that look alike come from different tables or passages of the source.

Chain of RSV-F (P03420 26-574): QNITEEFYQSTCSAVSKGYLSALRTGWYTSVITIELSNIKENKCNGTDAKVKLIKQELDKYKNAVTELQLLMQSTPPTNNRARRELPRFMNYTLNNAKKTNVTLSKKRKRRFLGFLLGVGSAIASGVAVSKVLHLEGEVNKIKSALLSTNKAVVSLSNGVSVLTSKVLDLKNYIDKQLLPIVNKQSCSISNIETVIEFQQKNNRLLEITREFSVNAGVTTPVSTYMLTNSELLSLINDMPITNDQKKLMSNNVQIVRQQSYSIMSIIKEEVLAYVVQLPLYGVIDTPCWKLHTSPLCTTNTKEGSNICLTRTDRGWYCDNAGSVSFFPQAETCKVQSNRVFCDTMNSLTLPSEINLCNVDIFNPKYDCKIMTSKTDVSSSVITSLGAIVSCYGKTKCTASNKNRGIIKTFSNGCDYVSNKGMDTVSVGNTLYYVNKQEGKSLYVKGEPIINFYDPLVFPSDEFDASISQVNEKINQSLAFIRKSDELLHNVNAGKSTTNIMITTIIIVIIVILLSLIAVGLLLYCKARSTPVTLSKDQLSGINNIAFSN
Chain of Avastin-T22d35 (P37173 whole entry, looked up): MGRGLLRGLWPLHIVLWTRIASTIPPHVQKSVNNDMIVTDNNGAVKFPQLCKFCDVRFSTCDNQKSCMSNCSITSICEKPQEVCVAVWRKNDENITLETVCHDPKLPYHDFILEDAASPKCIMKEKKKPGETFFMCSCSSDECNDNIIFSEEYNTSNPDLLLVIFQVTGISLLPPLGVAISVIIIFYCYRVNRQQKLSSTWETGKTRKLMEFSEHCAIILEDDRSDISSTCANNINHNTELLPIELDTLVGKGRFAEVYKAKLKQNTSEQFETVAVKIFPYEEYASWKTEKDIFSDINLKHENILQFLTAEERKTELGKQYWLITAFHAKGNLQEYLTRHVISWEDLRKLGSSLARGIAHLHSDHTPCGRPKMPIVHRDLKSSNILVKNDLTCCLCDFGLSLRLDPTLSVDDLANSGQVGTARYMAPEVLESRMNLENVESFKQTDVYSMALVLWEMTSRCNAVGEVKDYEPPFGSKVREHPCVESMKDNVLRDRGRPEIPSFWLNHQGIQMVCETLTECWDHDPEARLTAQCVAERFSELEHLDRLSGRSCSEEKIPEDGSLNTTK
Chain of T22d35-hIgG2Fc(CC)ΔK (P37173 other isoform, or with tags, fused parts or gaps mutant): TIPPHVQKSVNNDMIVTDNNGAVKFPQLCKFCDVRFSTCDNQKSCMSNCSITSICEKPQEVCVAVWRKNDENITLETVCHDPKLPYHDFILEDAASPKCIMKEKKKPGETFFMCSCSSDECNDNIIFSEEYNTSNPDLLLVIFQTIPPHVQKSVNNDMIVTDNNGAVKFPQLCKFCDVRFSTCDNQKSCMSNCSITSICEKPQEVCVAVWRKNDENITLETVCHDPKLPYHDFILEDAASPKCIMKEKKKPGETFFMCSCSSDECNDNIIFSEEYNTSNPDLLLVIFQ
Chain of T22d35 (single-chain fusion of two TGF-β type II receptor ectodomains) (P37173 other isoform, or with tags, fused parts or gaps): as the sequence (P37173 other isoform, or with tags, fused parts or gaps mutant) above
Chain of hIgG2Fc(CC)ΔK-T22d35 (P37173 other isoform, or with tags, fused parts or gaps mutant): as above

“T22d35-hIgG2Fc(CC)ΔK (from UniProt P37173 23-166; P37173 23-166) (Fc fusion)” came in with an IC50 (nM) of neutralization of TGF-β2 (10 pM), A549 IL-11 release assay in assay [1] of 4.76 nM. This substance registered an IC50 (nM) of neutralization of TGF-β1 (10 pM), A549 IL-11 release assay in assay [2] of 0.00331 nM.
“Herceptin-T22d35 (from UniProt P37173 23-166; P37173 23-166) (antibody)” showed an IC50 (nM) of neutralization of TGF-β3 (10 pM), A549 IL-11 release assay in assay [3] of 0.00249 nM. The substance further had an IC50 (nM) of neutralization of TGF-β2 (10 pM), A549 IL-11 release assay in assay [4] of 4.35 nM.
The matching figures for “Avastin-T22d35 (from UniProt P37173 23-166; P37173 23-166) (antibody)”: 0.00276 nM and 2.99 nM.
In assay [2], “T22d35 (single-chain fusion of two TGF-β type II receptor ectodomains) (from UniProt P37173 23-166; P37173 23-166) (domain or fragment)” came in with an IC50 (nM) of neutralization of TGF-β1 (10 pM), A549 IL-11 release assay of 3.25 nM. For the same substance, in assay [5], the IC50 of neutralization of TGF-β1, A549 IL-11 release assay (Figure 2B) stood at 0.5 nM.
In assay [6], “FC5VHH-Fc-T22d35 (from UniProt P37173 23-166; P37173 23-166) (Fc fusion)” came in with an IC50 (nM) of neutralization of TGF-β1 (10 pM), A549 IL-11 release assay of 0.00235 nM.
As to “hIgG2Fc(CC)ΔK-T22d35 (from UniProt P37173 23-166; P37173 23-166) (Fc fusion)”, in assay [1], the IC50 (nM) of neutralization of TGF-β2 (10 pM), A549 IL-11 release assay is 1.41 nM.
“Cetuximab-T2m (from UniProt P37173 23-166) (antibody)” came in with an IC50 (nM) of neutralization of TGF-β3 (10 pM), A549 IL-11 release assay in assay [3] of 0.0332 nM.
“FC5VHH-Fc-T2m (from UniProt P37173 23-166) (Fc fusion)” showed an IC50 (nM) of neutralization of TGF-β1 (10 pM), A549 IL-11 release assay in assay [6] of 0.00569 nM.
As to “Cetuximab-T22d35 (from UniProt P37173 23-166; P37173 23-166) (antibody)”, the IC50 (nM) of neutralization of TGF-β3 (10 pM), A549 IL-11 release assay in assay [3] was 0.00428 nM. The IC50 (nM) of neutralization of TGF-β2 (10 pM), A549 IL-11 release assay in assay [4] amounted to 3.33 nM.
In assay [7], “RSV-F (from UniProt P03420 26-574) (natural protein)” returned a Kd of 4.1 nM, a koff of 0.00142 s⁻¹ and a kon of 35500 M⁻¹ s⁻¹. In addition, in assay [8], the Kd was found to be 6.6 nM, the koff came to 0.00168 s⁻¹ and the kon is 25700 M⁻¹ s⁻¹.

By Kd is commonly meant the equilibrium constant for the complex coming apart. Lower therefore signals a tighter complex. What is called koff is the rate constant with which the complex falls apart. Low readings indicate a long-lived complex, high ones a short-lived complex. A word on the kon: it is the second-order rate constant of association. Read a high kon as fast association.
